Test system: MS2 coat protein
Experiment: apparent KD of MS2 coat protein; designed switch direction (-1 OFF switch, 1 ON switch): 1; higher = weaker reporter binding
Procedure, shortened: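 Three titration conditions were used: no input, 200 uM small-molecule ligand, and an oligonucleotide input. In each, SNAP-549-labelled MS2 coat protein was raised from 0.7 or 1.5 nM, doubling, to 3 µM over designed RNA switches transcribed on Illumina chips by stalled E. coli RNA polymerase. Curve fits of normalised cluster fluorescence gave values whose per-design median over clusters is the apparent KD.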

[1] = Eterna round: R95, input ligand: FMN 200 uM
[2] = Eterna round: R95, input ligand: microRNA oligo, concentration not stated
[3] = Eterna round: R95, input ligand: none
[4] = input ligand: microRNA oligo, concentration not stated

AUUAAACAUGAGGAUCACCCAUGUCAACAAAGUCGAGGAUAUGGGCAAAUAAAAUAAGAACCAGAAGGCGAUUAAU [salish99_ss1_r3_078] (puzzle: Same State 1)
apparent KD of MS2 coat protein [1]: 18.7 nM | apparent KD of MS2 coat protein [2]: 109 nM | apparent KD of MS2 coat protein [3]: 95.7 nM

AUUAAACAUGAGGAUCACCCAUGUCAACAAAGUCGAGGAUAUGGGCAAAUAAAUUAAGAACCAGAAGGCGAAUAAU [salish99_ss1_r3_057] (puzzle: Same State 1)
apparent KD of MS2 coat protein [2]: 266 nM

AUUAAACAUGAGGAUCACCCAUGUCAACAAAGUCGAGGAUAUGGGCAAUUAAAAUAAGAACCAGAAGGCGAAUAAU [salish99_ss1_r3_061] (puzzle: Same State 1)
apparent KD of MS2 coat protein [2]: 224 nM

AUUAAUUAUGCAGGAUAUGAUUAACAUGAGGAUCACCCAUGUGGUGUUGUGAGUAAGGAGAGUGAUCAGAAGGGCAUUUUUUUU [JMF's solution 66] (Eterna round: R96, puzzle: Same State NG 2)
apparent KD of MS2 coat protein (input ligand: FMN 200 uM): 652 nM | apparent KD of MS2 coat protein [4]: 524 nM | apparent KD of MS2 coat protein (input ligand: none): 449 nM

AUUAUACAUGAGGAUCACCCAUGUAAUUAAUUAAUUAAGAUCAAGGAUAUCAGCUCGAAUAGAGCUGAGAAGGUGAUCACAUGU [SSNG3/20-B1] (Eterna round: R96, puzzle: Same State NG 3)
apparent KD of MS2 coat protein [4]: 218 nM

AUUAUCUAUGCAGGAUAUGAUUAACAUGAGGAUCACCCAUGUGGUGUUGUGAGUAAGGAGAGUGAUCAGAAGGGCAUUUUUUUU [JMF's solution 65] (Eterna round: R96, puzzle: Same State NG 2)
apparent KD of MS2 coat protein (input ligand: FMN 200 uM): 875 nM | apparent KD of MS2 coat protein [4]: 370 nM | apparent KD of MS2 coat protein (input ligand: none): 566 nM

AUUAUUUAUGCAGGAUAUGAUUAACAUGAGGAUCACCCAUGUGGUGUUGUGAGUAAGGAGAGUGAUCAGAAGGGCAUUUUUUUG [JMF's solution 57] (Eterna round: R96, puzzle: Same State NG 2)
apparent KD of MS2 coat protein (input ligand: FMN 200 uM): 666 nM | apparent KD of MS2 coat protein [4]: 451 nM | apparent KD of MS2 coat protein (input ligand: none): 350 nM

AUUGGGUAACGAGGAUAUCGUUUUUGUUUUCUUCGAGAAGGCGUUAUUGUUUAUUUCUAUUGUUACAUGAGGAUCACCCAUGUU [JR_SSNG1_Sub055] (Eterna round: R96, puzzle: Same State NG 1)
apparent KD of MS2 coat protein (input ligand: FMN 200 uM): 15 nM | apparent KD of MS2 coat protein [4]: 13.8 nM | apparent KD of MS2 coat protein (input ligand: none): 21.5 nM

AUUUCAGUCAGAGGAUAUUGUUUAUCUCUAUUGCAAGAAGGCUGAUCUUACUACCCACUUAUGAAACAUGAGGAUCACCCAUGU [JR_SSNG1_Sub017] (Eterna round: R96, puzzle: Same State NG 1)
apparent KD of MS2 coat protein [4]: 15.7 nM

AUUUGUAAUGCAGGAUAUGAUUAACAUGAGGAUCACCCAUGUGGUGUUGUGAGUAAGGAGAGUGAUCAGAAGGGCAUUUUUUUU [JMF's solution 98] (Eterna round: R96, puzzle: Same State NG 2)
apparent KD of MS2 coat protein (input ligand: FMN 200 uM): 800 nM | apparent KD of MS2 coat protein [4]: 295 nM | apparent KD of MS2 coat protein (input ligand: none): 526 nM

AUUUUAAAUGCAGGAUAUGAUUAACAUGAGGAUCACCCAUGUGGUGUUGUGAGUAAGGAGAGUGAUCAGAAGGGCAUUUUUUUU [JMF's solution 95] (Eterna round: R96, puzzle: Same State NG 2)
apparent KD of MS2 coat protein (input ligand: FMN 200 uM): 748 nM | apparent KD of MS2 coat protein [4]: 546 nM | apparent KD of MS2 coat protein (input ligand: none): 714 nM

CAAACUUAGUAGGAUAGGUACCCAGGAUGACAUGAGGAUCACCCAUGUAAGAGCUUUUUGCUCGUCAUUAACAGUUG [JR_SHM208a_Sub017] (puzzle: Sensor for hsa-mir-208a)
apparent KD of MS2 coat protein [1]: 51.7 nM | apparent KD of MS2 coat protein [2]: 53 nM | apparent KD of MS2 coat protein [3]: 78.3 nM

CAAACUUAGUAGGGUAGGUACCCAGGACGACAUGAGGAUCACCCAUGUAAGAGCUUUUUGCUCGUCGUCAACAGUUG [JR_SHM208a_Sub019] (puzzle: Sensor for hsa-mir-208a)
apparent KD of MS2 coat protein [1]: 19.8 nM | apparent KD of MS2 coat protein [2]: 22.5 nM | apparent KD of MS2 coat protein [3]: 19.8 nM

CAAGGACGGACACAGGAUAUCCUCACCUACACAUGAGGAUCACCCAUGUCAUAAAAGAUGGUGCAGGAGAAGGGUGCGGCGUCAA [Zarelaesdi] (puzzle: Same State 2)
apparent KD of MS2 coat protein [1]: 7.93 nM | apparent KD of MS2 coat protein [2]: 8.32 nM | apparent KD of MS2 coat protein [3]: 6.36 nM

CACAUGAGGAUCACCCAUGUGAGGCGGCAAUAAAACCGCGCACAGGAUAUAGCGCUAAGAAAGCGCUAGAAGGGUGAUUAGAAC [Gerelabies] (Eterna round: R96, puzzle: Same State NG 3)
apparent KD of MS2 coat protein (input ligand: FMN 200 uM): 712 nM | apparent KD of MS2 coat protein [4]: 20.8 nM | apparent KD of MS2 coat protein (input ligand: none): 71.1 nM

CAGCGCUGUCGAGAGGAUAUGCGGUGAUGGACAUGAGGAUCACCCAUGUUAGCGAUGGCAUUACGGUAGAAGGCUCUACAGCUGC [Soteed - 4] (puzzle: Same State 2)
apparent KD of MS2 coat protein [2]: 26 nM

CAGUGCUGUUGAGAGGAUAUGCGGUGAUGGACAUGAGGAUCACCCAUGUUAGCGACAGCGUUACGGCAGAAGGCUCUACCCACUG [Soteed Omei mod 48] (puzzle: Same State 2)
apparent KD of MS2 coat protein [2]: 39.1 nM

CAUACGCGGAGAGGAUAUCGCAGGGUAACGGUAAGUGCCCGAUGACAUGAGGAUCACCCAUGUAUCGAGAAGGCUCCUCACCCU [Eternabot solution 22] (Eterna round: R96, puzzle: Same State NG 2)
apparent KD of MS2 coat protein (input ligand: FMN 200 uM): 10.6 nM | apparent KD of MS2 coat protein [4]: 7.9 nM | apparent KD of MS2 coat protein (input ligand: none): 15.1 nM

CCCGCGUUUCGCGCCUACAUGAGGAUCACCCAUGUUUGUAGGCAGGAUAUCGUCCGCUCUGCGGGCGAGAAGGGCUGUUGUGGU [salish99_SSNG3_R04_029] (Eterna round: R96, puzzle: Same State NG 3)
apparent KD of MS2 coat protein [4]: 72.9 nM

CCGAUAAUAGGACAGGAUAUGACUGUCGUCACAUGAGGAUCACCCAUGUCCCGGCAAUGCCACCGUUAGAAGGGUCCUAUCUCGA [Maeded] (puzzle: Same State 2)
apparent KD of MS2 coat protein [2]: 13.5 nM

CCGGGUAAUGGAGGAUAUGGAGCCUUAUUGGCUCCAGAAGGCUAACAUGAGGAUCACCCAUGUAGUCCGGCGGUCAAUAGACCG [Eli NG1ss - 66] (Eterna round: R96, puzzle: Same State NG 1)
apparent KD of MS2 coat protein (input ligand: FMN 200 uM): 10.5 nM | apparent KD of MS2 coat protein [4]: 13.2 nM | apparent KD of MS2 coat protein (input ligand: none): 19.2 nM

CCGUUGAUGGGACAGGAUAUGACUGUCGUCACAUGAGGAUCACCCAUGUCCCGGCAAUGCCACCGUUAGAAGGGUCCCGUCUCGG [Edraedbibe] (puzzle: Same State 2)
apparent KD of MS2 coat protein [2]: 12 nM

CGACACACGGCAGGAUAUGCUUAGCAAAGCUAAGCAGAAGGGCCUCAUGUCGUGGAAACGUGACAUGAGGAUCACCCAUGUUGC [Omei SS(NG)1 Cv1] (Eterna round: R96, puzzle: Same State NG 1)
apparent KD of MS2 coat protein (input ligand: FMN 200 uM): 21 nM | apparent KD of MS2 coat protein [4]: 5.59 nM | apparent KD of MS2 coat protein (input ligand: none): 36.3 nM
